Among the data in publication PMC2933787 are binding result and binding signal values, retold here.

What all share (test): EMSA
A general note: In EMSA bound probe runs differently from free probe, usually more slowly.

One series addresses T1, DmTHAP R66A (Drosophila melanogaster, UniProt Q7M3K2 1-77, R66A).
T1 sequence: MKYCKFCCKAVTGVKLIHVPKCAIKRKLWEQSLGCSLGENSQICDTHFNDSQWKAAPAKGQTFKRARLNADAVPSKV

In the next series the target is T2, DmTHAP dY2,K3 (Drosophila melanogaster, UniProt Q7M3K2 1-77, del2-3).
T2 sequence: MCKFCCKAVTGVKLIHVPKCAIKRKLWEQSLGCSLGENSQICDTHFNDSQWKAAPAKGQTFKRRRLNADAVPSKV

The target of a further series is T3, DmTHAP Q42A (Drosophila melanogaster, UniProt Q7M3K2 1-77, Q42A).
T3 sequence: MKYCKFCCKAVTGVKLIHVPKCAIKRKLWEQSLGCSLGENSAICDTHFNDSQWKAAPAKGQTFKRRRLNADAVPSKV

The target of a further series is T4, DmTHAP H18A (Drosophila melanogaster, UniProt Q7M3K2 1-77, H18A).
T4 sequence: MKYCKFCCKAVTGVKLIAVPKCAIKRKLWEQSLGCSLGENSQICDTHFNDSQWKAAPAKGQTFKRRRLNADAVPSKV

A further series deals with T5, DmTHAP H18A Q42A (Drosophila melanogaster, UniProt Q7M3K2 1-77, H18A;Q42A).
T5 sequence: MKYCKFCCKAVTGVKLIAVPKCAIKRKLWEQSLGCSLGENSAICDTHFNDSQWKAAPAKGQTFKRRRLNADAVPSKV

In the next series the target is T6, DmTHAP R65A (Drosophila melanogaster, UniProt Q7M3K2 1-77, R65A).
T6 sequence: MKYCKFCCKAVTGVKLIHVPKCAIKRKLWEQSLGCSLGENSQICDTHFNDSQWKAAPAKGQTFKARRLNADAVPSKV

In a further series the target is T7, DmTHAP R65A R67A (Drosophila melanogaster, UniProt Q7M3K2 1-77, R65A;R67A).
T7 sequence: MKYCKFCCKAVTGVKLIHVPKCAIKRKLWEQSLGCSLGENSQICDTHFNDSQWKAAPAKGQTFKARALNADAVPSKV

The target in a further series is T8, DmTHAP R67A (Drosophila melanogaster, UniProt Q7M3K2 1-77, R67A).
T8 sequence: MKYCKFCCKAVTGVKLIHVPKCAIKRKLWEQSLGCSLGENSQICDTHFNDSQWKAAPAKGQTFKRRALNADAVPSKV

Series [1] deals with T9, DmTHAP (P element transposase THAP domain) (Drosophila melanogaster, UniProt Q7M3K2 1-77).
T9 sequence: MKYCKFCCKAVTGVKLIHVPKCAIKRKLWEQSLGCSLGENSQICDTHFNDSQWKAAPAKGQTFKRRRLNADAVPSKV

B1: 15mer duplex with transposase site (dsDNA)
DNA 1: GAGGTTAAGTGGATGT
DNA 2: TACATCCACTTAAC
As for B1, in the series with DmTHAP R66A, the binding result was “no binding”. In addition, the binding signal with DmTHAP dY2,K3 is ~3 fold reduction in affinity vs WT; with DmTHAP Q42A, ~15 fold reduction in affinity vs WT; with DmTHAP H18A, ~12 fold reduction in affinity vs WT; with DmTHAP H18A Q42A, ~20 fold reduction in affinity vs WT; with DmTHAP R65A it was ~21 fold reduction in affinity vs WT; with DmTHAP R65A R67A, ~42 fold reduction in affinity vs WT. In addition, the binding signal with DmTHAP R67A is ~17 fold reduction in affinity vs WT; in series [1], 1 fold reduction in affinity vs WT (reference).
